In paper PMC9332313, “Folding and Binding Mechanisms of the SH2 Domain from Crkl” (Biomolecules, 2022):
Square brackets hold non-standard residues; d marks the D form. Ends that are not written are not given here. * marks the point of attachment. pY = N[C@@H](Cc1ccc(OP(=O)(O)O)cc1)C(=O)O; Dansyl = CN(C)c1cccc2c(S(=O)(=O)*)cccc12

Key:
Settings in all cases: both partners purified
[1] = molecular target: T1, SH2 domain of Crkl protein (residues 1-111), H91A variant (UniProt P46109 1-111, H91A); assay: stopped-flow fluorescence kinetics (FRET); dansyl-Pax112-123 constant at 2 μM mixed with Crkl-SH2 2 to 10 μM (pseudo-first-order, kon); koff by displacement of the preincubated 2 µM complex with excess non-dansylated Pax112-123 (30 μM); 283 K; 50 mM BisTRIS pH 6.0, 0.5 M NaCl
T1 construct: Crkl adaptor protein, SH2 domain, residues 1-111, His91 replaced by alanine; Site-directed mutant of m1 (QuikChange); source: E. coli BL21 (DE3), purified (HisTrap nickel column, desalting); not shown: His tag, N-terminal, kept

[2] = molecular target: T2, SH2 domain of Crkl protein (residues 1-111), H33A variant (UniProt P46109 1-111, H33A); assay: as above
T2 construct: Crkl adaptor protein, SH2 domain, residues 1-111, His33 replaced by alanine; Site-directed mutant of m1 (QuikChange); source: E. coli BL21 (DE3), purified (HisTrap nickel column, desalting); not shown: His tag, N-terminal, kept

[3] = molecular target: T3, SH2 domain of Crkl protein (residues 1-111), wild type (UniProt P46109 1-111); assay: as above
T3 construct: Crkl adaptor protein, SH2 domain, residues 1-111; Subcloned in pET28b+; all experiments were done on the N-terminally His-tagged protein; also called Crkl-SH2; Crkl SH2 domain; source: E. coli BL21 (DE3), purified (HisTrap nickel column, desalting); not shown: His tag, N-terminal, kept

[4] = molecular target: T1, SH2 domain of Crkl protein (residues …); assay: stopped-flow fluorescence kinetics (FRET); dansyl-Pax112-123 constant at 2 μM mixed with Crkl-SH2 2 to 10 μM (pseudo-first-order, kon); koff by displacement of the preincubated 2 µM complex with excess non-dansylated Pax112-123 (30 μM); 283 K; 50 mM TrisHCl pH 8.5, 0.5 M NaCl
[5] = molecular target: T4, SH2 domain of Crkl protein (residues 1-111), H80A variant (UniProt P46109 1-111, H80A); assay: as above
T4 construct: Crkl adaptor protein, SH2 domain, residues 1-111, His80 replaced by alanine; Site-directed mutant of m1 (QuikChange); source: E. coli BL21 (DE3), purified (HisTrap nickel column, desalting); not shown: His tag, N-terminal, kept

[6] = molecular target: T2, SH2 domain of Crkl protein (residues …); assay: as above
[7] = molecular target: T3, SH2 domain of Crkl protein (residues …); assay: as above
[8] = molecular target: T1, SH2 domain of Crkl protein (residues …); assay: stopped-flow fluorescence kinetics (FRET); dansyl-Pax112-123 constant at 2 μM mixed with Crkl-SH2 2 to 10 μM (pseudo-first-order, kon); koff by displacement of the preincubated 2 µM complex with excess non-dansylated Pax112-123 (30 μM); 283 K; 50 mM TrisHCl pH 9.0, 0.5 M NaCl
[9] = molecular target: T2, SH2 domain of Crkl protein (residues …); assay: as above
[10] = molecular target: T3, SH2 domain of Crkl protein (residues …); assay: as above

T4 sequence (P46109 1-111 H80A): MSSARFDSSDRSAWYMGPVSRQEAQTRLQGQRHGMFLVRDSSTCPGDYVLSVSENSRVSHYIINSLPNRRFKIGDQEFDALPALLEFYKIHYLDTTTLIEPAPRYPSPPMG
T1 sequence (P46109 1-111 H91A): as the sequence (P46109 1-111 H80A) above, with A80H, H91A counted along it
T3 sequence (P46109 1-111): as the sequence (P46109 1-111 H80A) above, with A80H counted along it
T2 sequence (P46109 1-111 H33A): as the sequence (P46109 1-111 H80A) above, with H33A, A80H counted along it

B1: dansylated Pax_(112–123) peptide (Dans-GEEEHV-pY-SFPNK) (peptide)
peptide: Dansyl-GEEEHV[pY]SFPNK
notes: The dansyl group is the FRET acceptor of Trp14 of the SH2 domain; source: synthetic peptide, bought: GenScript
Kd [1]: 3000 ± 100 nM | koff [1]: 20 ± 0.3 s⁻¹ | kon [1]: 6.6e+06 ± 200000 M⁻¹ s⁻¹ | Kd [2]: 3300 ± 200 nM | koff [2]: 19.5 ± 0.4 s⁻¹ | kon [2]: 5.9e+06 ± 300000 M⁻¹ s⁻¹ | Kd [3]: 2600 ± 200 nM | koff [3]: 20.8 ± 0.3 s⁻¹ | kon [3]: 7.9e+06 ± 600000 M⁻¹ s⁻¹ | Kd [4]: 2600 ± 100 nM | koff [4]: 34.9 ± 0.5 s⁻¹ | kon [4]: 1.36e+07 ± 600000 M⁻¹ s⁻¹ | Kd [5]: 3200 ± 500 nM | koff [5]: 32.5 ± 2.7 s⁻¹ | kon [5]: 1.02e+07 ± 1.2e+06 M⁻¹ s⁻¹ | Kd [6]: 2100 ± 300 nM | koff [6]: 26.9 ± 2.8 s⁻¹ | kon [6]: 1.26e+07 ± 1.4e+06 M⁻¹ s⁻¹ | Kd [7]: 3500 ± 300 nM | koff [7]: 41.6 ± 0.9 s⁻¹ | kon [7]: 1.2e+07 ± 1.1e+06 M⁻¹ s⁻¹ | Kd [8]: 2900 ± 100 nM | koff [8]: 36.4 ± 0.5 s⁻¹ | kon [8]: 1.27e+07 ± 500000 M⁻¹ s⁻¹ | Kd [9]: 4200 ± 500 nM | koff [9]: 44.7 ± 4 s⁻¹ | kon [9]: 1.06e+07 ± 1e+06 M⁻¹ s⁻¹ | Kd [10]: 2500 ± 200 nM | koff [10]: 36.1 ± 0.6 s⁻¹ | kon [10]: 1.41e+07 ± 900000 M⁻¹ s⁻¹
